Measurements published in US20240158497A1 (published 2024).
Each block holds one binder with its values, some of them ahead of it.

Experiments:
[1] = molecular target: T1, mouse GP130 extracellular domain expressed with a C-terminal myc-myc-hexahistidine tag (mouse, UniProt Q00560 23-617); test: SPR
T1 construct: monomeric; also called mGP130-mmH; mGP130-MMH
Method: (§1) Equilibrium dissociation constant (KD) for different GP130 reagents binding to purified anti-GP130 monoclonal antibodies were determined using a real-time surface plasmon resonance based Biacore 4000 biosensor. All binding studies were performed in 10 mM HEPES, 150 mM NaCl, 3 mM EDTA, and 0.05% v/v Surfactant Tween-20, pH 7.4 (HBS-ET) running buffer at 25° C. and 37° C. The Biacore sensor surface was first derivatized by amine coupling with a monoclonal mouse anti-human Fc antibody (GE, #BR-1008-39) to capture anti-GP130 monoclonal antibodies. […] Reagents tagged with “mmH” are monomeric, whereas reagents tagged with “mFc” are dimeric. Thus, for example, “hGP130-mmH” is also referred to as “monomeric human GP130,” and “hGP130-mFc” is also referred to as “dimeric human GP130.”
(§2) The association rate (k a) and dissociation rate (kd) were determined by fitting the real-time binding sensorgrams to a 1:1 binding model with mass transport limitation using Scrubber 2.0c curve-fitting software. Binding dissociation equilibrium constant (KD) and dissociative half-life (t ½) were calculated from the kinetic rates as: […]

[2] = molecular target: T2, human GP130 extracellular domain expressed with a C-terminal myc-myc-hexahistidine tag (human, UniProt P40189 23-619); test: SPR 25C, mAb captured, hGP130-MMH injected
T2 construct: monomeric; also called hGP130-mmH; hGP130-MMH
Method: as §1, §2

[3] = molecular target: T3, human GP130 delta D1 expressed with a C-terminal myc-myc hexahistidine tag (human, UniProt P40189 124-619); test: Luminex, myc-captured antigen
T3 construct: CHO supernatant, captured on anti-myc microspheres; also called human GP130 delta D1-MMH
Method: (§3) Aliquots of microspheres with immobilized anti-myc monoclonal antibodies, prepared as described above, were added individually to 1 mL of the each of these protein supernatants and to 500 uL of purified GP130 protein. The microspheres were gently mixed, incubated for two hours at 25° C., washed twice with 1 mL of DBPS, centrifuged to remove the supernatant and finally resuspended in 1 mL of DPBS buffer. Forty eight μL of anti-myc IgG coupled microspheres from individual reactions with full length human GP130 and with each of the human GP130 domain proteins were withdrawn and mixed together in 3.6 mL of PBS+20 mg/mL BSA+0.05% sodium azide (blocking buffer).
(§4) From this mixed pool, 75 μL of microspheres were plated per well on a 96 well filter plate (Millipore, Cat. No: MSBVN1250) and mixed with 25 μL of individual anti-human GP130 monoclonal antibodies (0.5 or 5 μg/mL), incubated for two hours at 25° C. and then washed twice with 200 μL of DPBS with 0.05% Tween 20 (washing buffer). To detect and quantify the amounts of bound anti-GP130 antibody levels to individual microspheres, either 100 μL of 2.5 μg/mL R-Phycoerythrin conjugated goat F(ab′)2 anti-human kappa (Southern Biotech, Cat #2063-09) in blocking buffer, was added and incubated for 30 minutes at 25° C. After 30 minutes, the samples were washed twice with 200 μL of washing buffer and resuspended in 150 μL of wash buffer. The Median Fluorescence intensity (MFI) of the microspheres was measured in a Luminex Analyzer.

[4] = molecular target: T4, human GP130 delta D1-D3 expressed with a C-terminal myc-myc hexahistidine tag (human, UniProt P40189 329-619); test: Luminex, myc-captured antigen
T4 construct: CHO supernatant, captured on anti-myc microspheres; also called human GP130 delta D1-D3-MMH
Method: as §3, §4

T2 sequence (P40189 other isoform, or with tags, fused parts or gaps): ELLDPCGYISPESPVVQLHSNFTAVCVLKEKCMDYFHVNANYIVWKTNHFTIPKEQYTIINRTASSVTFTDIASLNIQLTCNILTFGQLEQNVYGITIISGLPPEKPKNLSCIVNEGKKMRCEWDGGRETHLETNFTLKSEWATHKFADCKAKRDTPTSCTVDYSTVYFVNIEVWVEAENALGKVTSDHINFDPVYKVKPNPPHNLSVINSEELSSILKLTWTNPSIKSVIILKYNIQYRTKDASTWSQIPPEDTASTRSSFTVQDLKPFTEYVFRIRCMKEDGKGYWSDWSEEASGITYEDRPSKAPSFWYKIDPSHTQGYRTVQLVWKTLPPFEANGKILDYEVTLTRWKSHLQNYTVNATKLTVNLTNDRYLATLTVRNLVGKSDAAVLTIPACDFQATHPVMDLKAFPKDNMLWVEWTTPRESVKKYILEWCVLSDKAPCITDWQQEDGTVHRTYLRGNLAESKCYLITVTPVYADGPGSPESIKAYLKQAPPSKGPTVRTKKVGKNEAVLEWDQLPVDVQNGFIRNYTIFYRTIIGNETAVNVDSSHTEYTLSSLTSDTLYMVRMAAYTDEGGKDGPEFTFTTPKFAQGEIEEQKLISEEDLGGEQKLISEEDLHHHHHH
T1 sequence (Q00560 other isoform, or with tags, fused parts or gaps): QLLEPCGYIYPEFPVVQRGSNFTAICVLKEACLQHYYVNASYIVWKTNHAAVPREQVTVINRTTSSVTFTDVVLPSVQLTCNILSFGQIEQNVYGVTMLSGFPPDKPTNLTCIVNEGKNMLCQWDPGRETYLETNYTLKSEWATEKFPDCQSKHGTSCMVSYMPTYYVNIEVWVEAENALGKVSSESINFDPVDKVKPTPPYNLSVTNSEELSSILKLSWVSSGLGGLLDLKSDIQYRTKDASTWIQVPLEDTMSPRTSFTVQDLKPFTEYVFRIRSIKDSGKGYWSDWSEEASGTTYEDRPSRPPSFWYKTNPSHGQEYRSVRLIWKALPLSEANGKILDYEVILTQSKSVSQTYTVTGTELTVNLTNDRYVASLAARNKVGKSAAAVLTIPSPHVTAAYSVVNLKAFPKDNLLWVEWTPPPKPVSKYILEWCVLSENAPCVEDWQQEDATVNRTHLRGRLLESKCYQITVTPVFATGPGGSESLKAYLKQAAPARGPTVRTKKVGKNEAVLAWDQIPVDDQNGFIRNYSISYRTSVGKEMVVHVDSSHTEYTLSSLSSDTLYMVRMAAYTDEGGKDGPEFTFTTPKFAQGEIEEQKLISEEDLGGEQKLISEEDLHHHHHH
T3 sequence (P40189 other isoform, or with tags, fused parts or gaps mutant limits assumed): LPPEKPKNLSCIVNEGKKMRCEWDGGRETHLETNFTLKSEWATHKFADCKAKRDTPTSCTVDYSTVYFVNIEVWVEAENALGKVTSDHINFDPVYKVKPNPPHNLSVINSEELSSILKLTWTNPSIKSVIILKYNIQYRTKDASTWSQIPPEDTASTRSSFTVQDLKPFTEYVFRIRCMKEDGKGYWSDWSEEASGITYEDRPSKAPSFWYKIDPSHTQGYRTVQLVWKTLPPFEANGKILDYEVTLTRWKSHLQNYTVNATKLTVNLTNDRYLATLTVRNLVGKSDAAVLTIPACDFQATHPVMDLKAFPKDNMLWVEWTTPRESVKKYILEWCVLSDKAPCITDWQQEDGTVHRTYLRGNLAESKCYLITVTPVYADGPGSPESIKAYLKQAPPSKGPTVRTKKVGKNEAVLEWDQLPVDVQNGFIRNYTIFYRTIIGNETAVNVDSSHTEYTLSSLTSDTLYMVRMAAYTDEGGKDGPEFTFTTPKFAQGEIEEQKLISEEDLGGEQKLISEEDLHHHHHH
T4 sequence (P40189 other isoform, or with tags, fused parts or gaps mutant limits assumed): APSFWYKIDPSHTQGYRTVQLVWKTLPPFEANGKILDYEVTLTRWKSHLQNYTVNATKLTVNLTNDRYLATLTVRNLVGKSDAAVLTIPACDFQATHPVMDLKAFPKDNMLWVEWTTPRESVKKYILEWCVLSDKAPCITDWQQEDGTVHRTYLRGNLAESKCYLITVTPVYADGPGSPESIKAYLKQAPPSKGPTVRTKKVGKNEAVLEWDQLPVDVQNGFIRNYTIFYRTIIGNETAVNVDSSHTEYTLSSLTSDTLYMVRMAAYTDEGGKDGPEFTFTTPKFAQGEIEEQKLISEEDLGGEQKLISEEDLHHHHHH

binding result [1]: no binding (tested: 100 nM) | 100 nM Ag Bound (RU) [2]: 20 RU | Kd [2]: 0.411 µM | koff [2]: 0.0473 s⁻¹ | kon [2]: 115000 M⁻¹ s⁻¹ | t½ [2]: 0.2 min | binding result [3]: no binding (tested: 0.5 or 5 µg/mL) | binding result [4]: no binding (tested: 0.5 or 5 µg/mL)
B1: MAb16665 (antibody, V domains shown)
VH: QVQLVESGGGVVQPGRSLRLACAASGFTFRSYGMHWVRQAPGKGLEWVAVIWYDGSNKYYTDSVKGRFTISRDNSKNTLYLQMNSLRAEDTAMYYCAIDKWATVTTYLFDYWGQGTLVTVSS
VL: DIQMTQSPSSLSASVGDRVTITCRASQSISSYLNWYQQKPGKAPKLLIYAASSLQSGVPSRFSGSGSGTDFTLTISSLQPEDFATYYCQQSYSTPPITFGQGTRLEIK

binding result [1]: no binding (tested: 100 nM) | 100 nM Ag Bound (RU) [2]: 14 RU | Kd [2]: 0.00235 µM | koff [2]: 0.00164 s⁻¹ | kon [2]: 698000 M⁻¹ s⁻¹ | t½ [2]: 7 min | binding result [3]: no binding (tested: 0.5 or 5 µg/mL) | binding result [4]: no binding (tested: 0.5 or 5 µg/mL)
B2: MAb16664 (antibody, V domains shown)
VH: QVQLVQSGTEVKKPGSSVKVSCKASGGTFSTYPINWVRQAPGQGLEWMGGIIPIFGTASYAQKFQGRVAITTDESTSTAYMELNSLRSEDTAVYYCARERPNWGSNDYWGQGTLVTVSS
VL: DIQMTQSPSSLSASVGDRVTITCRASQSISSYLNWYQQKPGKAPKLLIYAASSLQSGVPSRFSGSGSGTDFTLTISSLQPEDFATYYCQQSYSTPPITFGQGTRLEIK

binding result [1]: no binding (tested: 100 nM) | 100 nM Ag Bound (RU) [2]: 22 RU | Kd [2]: 0.123 µM | koff [2]: 0.029 s⁻¹ | kon [2]: 235000 M⁻¹ s⁻¹ | t½ [2]: 0.4 min | binding result [4]: no binding (tested: 0.5 or 5 µg/mL)
B3: MAb16662 (antibody, V domains shown)
VH: EVQLVESGGGLVQPGGSLRLSCTASGFTFSNYAIFWVRQAPGKGLEYVSGISNNGVTKYYADSVRDRFTISRDNSRNTVSIQMDSLRTEDMAVYYCARENWGSDDGFDIWGQGTMVTVSS
VL: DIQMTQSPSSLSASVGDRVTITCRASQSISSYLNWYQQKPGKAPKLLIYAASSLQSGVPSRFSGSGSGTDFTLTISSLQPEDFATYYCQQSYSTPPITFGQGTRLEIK

binding result [1]: no binding (tested: 100 nM) | 100 nM Ag Bound (RU) [2]: 44 RU | Kd [2]: 0.023 µM | koff [2]: 0.000825 s⁻¹ | kon [2]: 35900 M⁻¹ s⁻¹ | t½ [2]: 14 min | binding result [3]: no binding (tested: 0.5 or 5 µg/mL) | binding result [4]: no binding (tested: 0.5 or 5 µg/mL)
B4: MAb16656 (antibody, V domains shown)
VH: EVQLVESGGGLVQPGRSLRLSCAASGFTLDDFAMHWVRQAPGKGLEWVSGISWNSGNIGYADSVKGRFTISRDNARNSLYLQMNSLRAEDTALYYCTSGYYLYYAMDVWGQGTTVTVSS
VL: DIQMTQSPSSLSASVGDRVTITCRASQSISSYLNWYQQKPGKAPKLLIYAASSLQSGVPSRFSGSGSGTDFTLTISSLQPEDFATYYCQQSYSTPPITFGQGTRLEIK

binding result [1]: no binding (tested: 100 nM) | 100 nM Ag Bound (RU) [2]: 37 RU | Kd [2]: 0.0368 µM | koff [2]: 0.000993 s⁻¹ | kon [2]: 27000 M⁻¹ s⁻¹ | t½ [2]: 12 min | binding result [4]: no binding (tested: 0.5 or 5 µg/mL)
B5: MAb16636 (antibody, V domains shown)
VH: QLQLQESGPGLVKPSETLSLICTVSGGSISSNNYYWGWIRQPPGKGLEWIGNLYGSGSTYYNPSLKSRVTISVDTSKNQFSLKLSFVTAADTAVYHCARWDTNGGAFDIWGQGTMVTVSS
VL: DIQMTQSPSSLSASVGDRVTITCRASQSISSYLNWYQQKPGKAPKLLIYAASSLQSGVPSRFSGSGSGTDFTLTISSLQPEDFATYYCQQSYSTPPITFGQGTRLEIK

binding result [1]: no binding (tested: 100 nM) | 100 nM Ag Bound (RU) [2]: 138 RU | Kd [2]: 0.0144 µM | koff [2]: 0.00456 s⁻¹ | kon [2]: 317000 M⁻¹ s⁻¹ | t½ [2]: 3 min | binding result [4]: no binding (tested: 0.5 or 5 µg/mL)
B6: MAb16666 (antibody, V domains shown)
VH: EVQLVESGGGLVQSGGSLRLSCAASGFTFSRYEMNWVRQAPGKGLEWVAYISNTGTTRDYSDSVKGRFTISRDNAKNSLYLQMSSLRVEDTAVYYCVREKFSGTSDWFDPWGQGTLVTVSS
VL: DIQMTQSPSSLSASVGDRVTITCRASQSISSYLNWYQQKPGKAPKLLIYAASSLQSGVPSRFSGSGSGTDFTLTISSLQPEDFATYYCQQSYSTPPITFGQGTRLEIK

binding result [1]: no binding (tested: 100 nM) | 100 nM Ag Bound (RU) [2]: 77 RU | Kd [2]: 0.000663 µM | koff [2]: 0.000459 s⁻¹ | kon [2]: 693000 M⁻¹ s⁻¹ | t½ [2]: 25 min | binding result [3]: no binding (tested: 0.5 or 5 µg/mL) | binding result [4]: no binding (tested: 0.5 or 5 µg/mL)
B7: MAb16659 (antibody, V domains shown)
VH: QVQLVQSGPEVKKPGSSVKVSCKASGGTIDRNEITWVRQAPGQGLEWMGVIIPILGEAHYERKFQGRLTITMDESTSTAYMELSNLRSEDTAVYYCARERAARGYLDYWGQGTLVTVSS
VL: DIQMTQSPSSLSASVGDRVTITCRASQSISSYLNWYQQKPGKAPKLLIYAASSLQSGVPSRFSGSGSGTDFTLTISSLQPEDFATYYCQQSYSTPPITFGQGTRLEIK

binding result [1]: no binding (tested: 100 nM) | 100 nM Ag Bound (RU) [2]: 58 RU | Kd [2]: 0.0655 µM | koff [2]: 0.0141 s⁻¹ | kon [2]: 215000 M⁻¹ s⁻¹ | t½ [2]: 0.8 min | binding result [4]: no binding (tested: 0.5 or 5 µg/mL)
B8: MAb16673 (antibody, V domains shown)
VH: EVQLVQSGAEVKKPGESLKISCKGSGYSFTSYWIDWVRQMPGKGLEWMGIIYPDDSDTRYSPSFQGQVTMSVDKSISTAYLQWSSLKASDTAIYYCARHERGIVEAGTDYYYYYGMDVWGQGTTVTVSS
VL: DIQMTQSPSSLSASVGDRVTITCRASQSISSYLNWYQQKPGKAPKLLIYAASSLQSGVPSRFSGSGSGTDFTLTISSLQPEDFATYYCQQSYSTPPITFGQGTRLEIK

binding result [1]: no binding (tested: 100 nM) | 100 nM Ag Bound (RU) [2]: 21 RU | Kd [2]: 0.136 µM | koff [2]: 0.0164 s⁻¹ | kon [2]: 121000 M⁻¹ s⁻¹ | t½ [2]: 0.7 min | binding result [4]: no binding (tested: 0.5 or 5 µg/mL)
B9: MAb16682 (antibody, V domains shown)
VH: EVQLVESGGGLVQPGGSLRLSCAASGFTFSTYWMNWVRQAPGKGLEWVANIKEDGSEKYYVDSVKGRFTISRDNAKNSLYLQMNSLRAEDTAVYYCAREGFGVVTYIWGQGTMVTVSS
VL: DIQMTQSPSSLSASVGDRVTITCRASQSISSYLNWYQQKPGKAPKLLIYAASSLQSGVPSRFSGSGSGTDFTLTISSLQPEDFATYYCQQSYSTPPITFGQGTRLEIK

binding result [1]: no binding (tested: 100 nM) | 100 nM Ag Bound (RU) [2]: 91 RU | Kd [2]: 0.0155 µM | koff [2]: 0.0011 s⁻¹ | kon [2]: 71100 M⁻¹ s⁻¹ | t½ [2]: 10 min | binding result [3]: no binding (tested: 0.5 or 5 µg/mL) | binding result [4]: no binding (tested: 0.5 or 5 µg/mL)
B10: MAb16637 (antibody, V domains shown)
VH: QVQLVQSGAEVKKPGASVKVSCKASGYTFTSLGISWVRQAPGQGLEWMGWISAYSGNRDYAQKFQGRVTMTTDTSTSTAYMELRSLRSDDTAVYYCARSLRFDYWGQGTLVTVSS
VL: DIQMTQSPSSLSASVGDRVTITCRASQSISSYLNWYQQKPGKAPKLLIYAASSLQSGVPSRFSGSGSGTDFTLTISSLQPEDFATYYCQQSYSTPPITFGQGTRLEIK

binding result [1]: no binding (tested: 100 nM) | 100 nM Ag Bound (RU) [2]: 51 RU | Kd [2]: 0.00219 µM | koff [2]: 0.000631 s⁻¹ | kon [2]: 287000 M⁻¹ s⁻¹ | t½ [2]: 18 min | binding result [3]: no binding (tested: 0.5 or 5 µg/mL) | binding result [4]: no binding (tested: 0.5 or 5 µg/mL)
B11: MAb16676 (antibody, V domains shown)
VH: QVQLVQSGAEVMKPGASVKVSCRASGYTFSSYDINWVRQAPGQGLEWMGWISTATGNTNYPQKVQGRVTMTTDTSTNTAYMELRSLRSDDTAVYYCTREGNSKGWLDPWGQGTLVTVSS
VL: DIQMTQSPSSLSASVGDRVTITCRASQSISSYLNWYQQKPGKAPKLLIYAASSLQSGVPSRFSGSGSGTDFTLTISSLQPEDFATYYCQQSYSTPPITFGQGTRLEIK
